# Measured values as given in patent publication US8530168B2, “Fusion protein comprising a Caspase domain and a nuclear hormone receptor binding domain and methods and uses thereof” (Helmholtz Zentrum Munich Deutsches Forschungszentrum fuer …, priority 2007, dated 2013).
# B1: Casp9full-ER(T2): full length murine Caspase-9 fused to ER(T2) ligand binding domain, SEQ ID NO: 29 (protein)
# chain: MDEADRQLLRRCRVRLVSELQVAELWDALLSRELFTRDMIEDIQQAGSGSRRDQARQLVTDLETRGRQALPLFISCLEDTGQGTLASLLQSGRQAAKQDPEAVKPLDHLVPVVLGPMGLTAKEQRVVKLDPSQPAVGNLTPVVLGPEELWPARLKPEVLRPETPRPVDIGSGGAHDVCVPGKIRGHADMAYTLDSDPCGHCLIINNVNFCPSSGLGTRTGSNLDRDKLEHRFRWLRFMVEVKNDLTAKKMVTALMEMAHRNHRALDCFVVVILSHGCQASHLQFPGAVYGTDGCSVSIEKIVNIFNGSGCPSLGGKPKLFFIQACGGEQKDHGFEVACTSSQGRTLDSDSEPDAVPYQEGPRPLDQLDAVSSLPTPSDILVSYSTFPGFVSWRDKKSGSWYIETLDGILEQWARSEDLQSLLLRVANAVSAKGTYKQIPGCFNFLRKKLFFKTSVEPSAGDMRAANLWPSPLMIKRSKKNSLALSLTADQMVSALLDAEPPILYSEYDPTRPFSEASMMGLLTNLADRELVHMINWAKRVPGFVDLTLHDQVHLLECAWLEILMIGLVWRSMEHPVKLLFAPNLLLDRNQGKCVEGMVEIFDMLLATSSRFRMMNLQGEEFVCLKSIILLNSGVYTFLSSTLKSLEEKDHIHRVLDKITDTLIHLMAKAGLTLQQQHQRLAQLLLILSHIRHMSNKGMEHLYSMKCKNVVPLYDLLLEAADAHRLHAPTSRGGASVEETDQSHLATAGSTSSHSLQKYYITGEAEGFPATA
# modifications: fusion protein Casp9full-ER(T2)
# B2: Casp8-ER(T2): fusion of murine Caspase-8 domain to the ER(T2) ligand binding domain, SEQ ID NO: 20 (protein)
# chain: MSESRTSDKVYQMKNKPRGYCLIINNHDFSKAREDITQLRKMKDRKGTDCDKEALSKTFKELHFEIVSYDDCTANEIHEILEGYQSADHKNKDCFICCILSHGDKGVVYGTDGKEASIYDLTSYFTGSKCPSLSGKPKIFFIQACQGSNFQKGVPDEAGFEQQNHTLEVDSSSHKNYIPDEADFLLGMATVKNCVSYRDPVNGTWYIQSLCQSLRERCPQGDDILSILTGVNYDVSNKDDRRNKGKQMPQPTFTLRKKLFFPPLEPSAGDMRAANLWPSPLMIKRSKKNSLALSLTADQMVSALLDAEPPILYSEYDPTRPFSEASMMGLLTNLADRELVHMINWAKRVPGFVDLTLHDQVHLLECAWLEILMIGLVWRSMEHPVKLLFAPNLLLDRNQGKCVEGMVEIFDMLLATSSRFRMMNLQGEEFVCLKSIILLNSGVYTFLSSTLKSLEEKDHIHRVLDKITDTLIHLMAKAGLTLQQQHQRLAQLLLILSHIRHMSNKGMEHLYSMKCKNVVPLYDLLLEAADAHRLHAPTSRGGASVEETDQSHLATAGSTSSHSLQKYYITGEAEGFPATA
# modifications: fusion protein Casp8-ER(T2)
# B3: Cre-ER(T2): fusion of Cre recombinase to ER(T2) ligand binding domain, negative control, SEQ ID NO: 5 (protein)
# chain: MSNLLTVHQNLPALPVDATSDEVRKNLMDMFRDRQAFSEHTWKMLLSVCRSWAAWCKLNNRKWFPAEPEDVRDYLLYLQARGLAVKTIQQHLGQLNMLHRRSGLPRPSDSNAVSLVMRRIRKENVDAGERAKQALAFERTDFDQVRSLMENSDRCQDIRNLAFLGIAYNTLLRIAEIARIRVKDISRTDGGRMLIHIGRTKTLVSTAGVEKALSLGVTKLVERWISVSGVADDPNNYLFCRVRKNGVAAPSATSQLSTRALEGIFEATHRLIYGAKDDSGQRYLAWSGHSARVGAARDMARAGVSIPEIMQAGGWTNVNIVMNYIRNLDSETGAMVRLLEDGDLEPSAGDMRAANLWPSPLMIKRSKKNSLALSLTADQMVSALLDAEPPILYSEYDPTRPFSEASMMGLLTNLADRELVHMINWAKRVPGFVDLTLHDQVHLLECAWLEILMIGLVWRSMEHPVKLLFAPNLLLDRNQGKCVEGMVEIFDMLLATSSRFRMMNLQGEEFVCLKSIILLNSGVYTFLSSTLKSLEEKDHIHRVLDKITDTLIHLMAKAGLTLQQQHQRLAQLLLILSHIRHMSNKGMEHLYSMKCKNVVPLYDLLLEAADAHRLHAPTSRGGASVEETDQSHLATAGSTSSHSLQKYYITGEAEGFPATA
# modifications: fusion protein Cre-ER(T2)
# B4: myrCasp8-ER(T2): murine Caspase-8 domain with N-terminal myristoylation motif fused to ER(T2) ligand binding domain, SEQ ID NO: 23 (protein)
# chain: MGSSKSKPKDPSQRSESRTSDKVYQMKNKPRGYCLIINNHDFSKAREDITQLRKMKDRKGTDCDKEALSKTFKELHFEIVSYDDCTANEIHEILEGYQSADHKNKDCFICCILSHGDKGVVYGTDGKEASIYDLTSYFTGSKCPSLSGKPKIFFIQACQGSNFQKGVPDEAGFEQQNHTLEVDSSSHKNYIPDEADFLLGMATVKNCVSYRDPVNGTWYIQSLCQSLRERCPQGDDILSILTGVNYDVSNKDDRRNKGKQMPQPTFTLRKKLFFPPLEPSAGDMRAANLWPSPLMIKRSKKNSLALSLTADQMVSALLDAEPPILYSEYDPTRPFSEASMMGLLTNLADRELVHMINWAKRVPGFVDLTLHDQVHLLECAWLEILMIGLVWRSMEHPVKLLFAPNLLLDRNQGKCVEGMVEIFDMLLATSSRFRMMNLQGEEFVCLKSIILLNSGVYTFLSSTLKSLEEKDHIHRVLDKITDTLIHLMAKAGLTLQQQHQRLAQLLLILSHIRHMSNKGMEHLYSMKCKNVVPLYDLLLEAADAHRLHAPTSRGGASVEETDQSHLATAGSTSSHSLQKYYITGEAEGFPATA
# modifications: N-terminal myristoylation motif; fusion protein myrCasp8-ER(T2)
# Legend:
# Type in all cases: cell-based, mouse
# MEF5/N9 cells [1] = assay: TUNEL in situ cell death detection assay of MEF5/N9 clones; details: 10^−8 M 4-OH-tamoxifen; for TUNEL result / apoptotic morphology (in words): 3 or 7 hours; for incubation time with 4-OH-tamoxifen at which TUNEL positive cells were detected: fixation at 2, 3, 5 and 7 hours
# Text: TUNEL, or terminal deoxynucleotidyl transferase-mediated dUTP nick end-labeling, is acknowledged as a method of choice in the rapid detection of DNA fragmentation that results from apoptotic signaling cascades (Gavrieli et al., J. Cell Biol., 119(3), 493-501 (1992)). Cleavage of genomic DNA during apoptosis may yield double-stranded, low molecular weight DNA fragments as well as single strand breaks (“nicks”) in high molecular weight DNA. Those DNA strand breaks can be identified by terminal deoxynucleotidyl transferase (TdT), which catalyzes polymerization of labeled nucleotides to free 3′-OH DNA ends in a template-independent manner. To detect 4-OH-tamoxifen induced cell death in MEF5/N9 cells, we applied the In Situ Cell Death Detection Kit, POD by Roche according to the manufacturer's instructions. Incorporated fluorescein is detected by anti-fluorescein antibody, conjugated with horse-radish peroxidase (POD). After substrate reaction, stained cells can be analyzed under light microscopy.
# Two days prior to the TUNEL staining, round glass cover slips ([…]) were sterilized with 70% EtOH, dried under laminar flow and coated with Poly-L-lysine at a concentration of 50 μg/ml over night at 37° C., which allows a better attachment of cells on the cover slips. The following day, the cover slips were rinsed 3 times with PBS and dried for 1 hour under laminar flow. 2.5·10^5 cells were seeded onto cover slips in a 6-well plate. On the test day, medium was replaced either by fresh medium or medium supplemented with 10^−8 M 4-OH-tamoxifen. […] After fixation, cells were rinsed three times in PBS, covered with 100% methanol and incubated for 10 min or over night in a freezer and rinsed in PBS. Endogenous peroxidase activity was blocked by immersing cover slips for 10 min in 3% H2O2 in methanol prior to cell permeabilization. Cells were subsequently rinsed with PBS and incubated in permeabilization solution (0.1% Triton X-100 in freshly prepared 0.1% sodium citrate) for 2 min on ice. To generate a positive control, DNA strand breaks were induced by incubating permeabilized cells with 2 U/ml DNase I in 50 mM Tris-HCl, pH 7.5, 10 mM MgCl2, 1 mg/ml BSA for 10 min at room temperature, prior to labeling procedure. Cover slips were rinsed twice with PBS before incubating each sample with 25 μl TUNEL reaction mixture for 60 min at 37° C. in a humidified atmosphere in the dark. To avoid evaporative loss, cover slips were covered with parafilm. For a negative control 25 μl of Label solution without enzyme solution were added. Following labeling, cover slips were rinsed 3 times with PBS for 10 min each. To convert the fluorescence signal to a chromogenic signal, 25 μl of the POD solution were added on each sample which was covered with parafilm and incubated in a humidified chamber for 30 min at 37° C. Subsequently, cover slips were rinsed 3 times with PBS and incubated in freshly prepared 0.05% DAB in 0.1 M Tris-HCl (pH 7.4) supplemented with 0.02% H2O2 for 10-20 min at room temperature. The conversion procedure was controlled under a light microscope. The reaction was stopped with PBS until brown precipitates were well visible inside the cells. To remove DAB, cover slips were rinsed several times in PBS. Optionally, nuclear staining was performed by incubating cover slips for 15 min in 2.5 μg/ml DAPI diluted in PBS. Cover slips were mounted with a water-soluble, non-fluorescing mounting medium (Aqua-Poly/Mount; Polysciences Inc., Eppelheim, Germany) under SuperFrost slides (VWR International). Prior to the analysis of the samples under a light microscope, mounting medium was dried for 24 hours at room temperature.
# To provide direct evidence for 4-OH-tamoxifen-induced apoptosis in MEF5/N9 clones expressing Caspase-8 or -9 fusion proteins, an in situ application of the TUNEL assay was performed. This method detects DNA fragmentation, one of the late events that result from apoptotic signaling cascades. […]
# MEF5/N9 cells [2] = assay: Transient cotransfection of ER(T2) fusion expression vectors with β-galactosidase reporter; β-galactosidase activity in lysates; details: no 4-OH-tamoxifen; transient transfection 50 or 100 ng vector; relative to Cre-ER(T2) without 4-OH-tamoxifen
# MEF5/N9 cells [3] = assay: Visible phenotypic changes / viability of stably transfected MEF5/N9 clones on 4-OH-tamoxifen treatment; details: 10^−8 M 4-OH-tamoxifen, 24 h
# Method: To generate stably transfected MEF5/N9 cells, 2·10^6 cells were coelectroporated with 32 μg ER(T2) fusion plasmid DNA linearised with ScaI and 8 μg pPgk-hygro-pA plasmid DNA linearised with XhoI and plated into two 96-well plates. The cells were grown in DMEM medium (Invitrogen) supplemented with 2 mM Glutamine and 10% fetal calf serum at 37° C., 5% CO2 in humid atmosphere, and passaged upon trypsinization. Two days after transfection the medium was supplemented with 250 U/ml of hygromycin (Calbiochem) for the selection of stable integrants. Upon the growth of resistant colonies these were individually expanded in the presence of hygromycin.
# To examine 4-OH-tamoxifen-dependent cell death, 1·10^5 MEF5/N9 cells expressing ER(T2) fusion proteins were plated into each well of a six-well plate. The following day, for each sample the medium in two of four individual wells were replaced with medium supplemented with 10^−8 M 4-hydroxy-tamoxifen. 24 hours after induction with 4-OH-tamoxifen, cells were photographed through a Leica DMI6000B fluorescence microscope with phase contrast either at 10-fold or 20-fold magnification.
# Since the responsiveness of the clones, transfected with the same construct, to 4-OH-tamoxifen differed only slightly from each other, only the results obtained from one clone for each construct are shown in the figure.
Molecule,TUNEL result / apoptotic morphology (in words) (MEF5/N9 cells [1]),incubation time with 4-OH-tamoxifen at which TUNEL positive cells were detected (MEF5/N9 cells [1]),basal toxicity: relative β-galactosidase activity compared to the negative control in absence of 4-OH-tamoxifen (MEF5/N9 cells [2]),"4-OH-tamoxifen-dependent cell death, phenotype of stable clones (MEF5/N9 cells [3])","4-OH-tamoxifen-dependent cell death, phenotype of stable clones (MEF5/N9 cells [3]; listed as Casp9fullER)","4-OH-tamoxifen-dependent cell death, phenotype of stable clones (MEF5/N9 cells [3]; listed as Casp8ER)","4-OH-tamoxifen-dependent cell death, phenotype of stable clones (MEF5/N9 cells [3]; listed as CreER)","4-OH-tamoxifen-dependent cell death, phenotype of stable clones (MEF5/N9 cells [3]; listed as myrCasp8ER)"
B1,typical apoptotic morphology,3 h,62%,died in the presence of 4-OH-tamoxifen within 24 h,substantial cell death,–,–,–
B2,typical apoptotic morphology,7 h,17%,died in the presence of 4-OH-tamoxifen within 24 h,–,substantial cell death,–,–
B3,TUNEL negative at any point in time,–,–,did not respond to 4-OH-tamoxifen,–,–,not affected by the treatment with 4-OH-tamoxifen,–
B4,typical apoptotic morphology,3 h,6%,died in the presence of 4-OH-tamoxifen within 24 h,–,–,–,substantial cell death
